One molecule from US20220265819A1 can be followed below.

Assay [1] deals with full length pHrodo-labelled aggregated (P301S) 2N4R tau (human) (UniProt P10636). Put plainly: cell-based or functional assay.
Assay [2] has as its target full length pHrodo-labelled monomeric (P301S) 2N4R tau (human) (UniProt P10636). Put plainly: cell-based or functional assay.

full length pHrodo-labelled aggregated (P301S) 2N4R tau (human), sequence (P10636 other isoform, or with tags, fused parts or gaps P301S P301S): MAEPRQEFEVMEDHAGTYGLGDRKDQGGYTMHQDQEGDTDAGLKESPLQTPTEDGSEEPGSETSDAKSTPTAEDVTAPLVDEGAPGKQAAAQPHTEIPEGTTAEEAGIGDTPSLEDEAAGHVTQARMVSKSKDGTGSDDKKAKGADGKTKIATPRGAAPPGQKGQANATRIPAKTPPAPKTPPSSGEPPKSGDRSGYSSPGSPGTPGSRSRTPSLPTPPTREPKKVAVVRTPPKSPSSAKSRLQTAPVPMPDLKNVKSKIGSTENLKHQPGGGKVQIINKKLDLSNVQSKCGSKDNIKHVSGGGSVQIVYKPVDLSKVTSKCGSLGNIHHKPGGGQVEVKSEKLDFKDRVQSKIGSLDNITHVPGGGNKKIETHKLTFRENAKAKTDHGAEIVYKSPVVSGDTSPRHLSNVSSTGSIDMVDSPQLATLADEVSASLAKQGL
full length pHrodo-labelled monomeric (P301S) 2N4R tau (human), sequence (P10636 other isoform, or with tags, fused parts or gaps P301S P301S): as above

B1: Clone 1 rabbit monoclonal IgG (antibody, V domains shown)
VH: QSLEESGGGLVKPGGTLTLTCTVSGFSLNNYDMSWVRQAPGKGLEWIGTVSTTYRRYYASWAKGRFTISKTSSTTVDLKMTSLTTEDTATYFCAASGIWGPGTLVTVSL
VL: AQVLTQTTSPVSAAVGGTVTINCQSSQRVYSNYLAWYQQKPGQPPKRLIFLASTLESGVPSRFSGSGSGTQFTLTISDLECDDAATYYCAGTYTGSIWAFGGGTEVVVKG
On to B1, for which, in assay [1], the inhibition of uptake of aggregated tau by human iPSC-derived astrocytes came out at 46.3 % inhibition, the inhibition of uptake of aggregated tau into human iPSC-derived neurons came out at 65 % inhibition and the inhibition of uptake of pHrodo-labelled aggregated tau into human iPSC-derived neurons at 4 h was 69 % inhibition. Besides, in assay [2], the inhibition of uptake of monomeric tau by human iPSC-derived astrocytes amounted to 39.8 % inhibition and the inhibition of uptake of monomeric tau into human iPSC-derived neurons was 41.2 % inhibition.
